The assay addresses Rab6B^Q72L, GTPase domain (residues 8-176), constitutively active mutant (mouse) (UniProt P61294). Kind of assay: ITC; MicroCal PEAQ-ITC, 25 °C, 50 mM Tris pH 7.5, 100 mM NaCl, 2 mM MgCl2; typically one protein (400 μM) in the syringe into its binding protein (40 μM) in the cell.

This is an account of results in paper PMC10267580.

Sequence of Rab6B^Q72L, GTPase domain (residues 8-176), constitutively active mutant (mouse) (P61294 8-176 Q72L): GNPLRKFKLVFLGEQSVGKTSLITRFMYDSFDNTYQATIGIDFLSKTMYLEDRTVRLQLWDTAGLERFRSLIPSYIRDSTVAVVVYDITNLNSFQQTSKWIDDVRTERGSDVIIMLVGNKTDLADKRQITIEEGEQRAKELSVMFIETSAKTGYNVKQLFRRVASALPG

On to “ELKS2_RBD, the region of ELKS2 corresponding to ELKS1 residues 849-922 (domain or fragment)”, for which the Kd (usually a measure of binding affinity in units of concentration) came out at 8 µM.
